The values below are quoted from earlier work in paper PMC3616122.

In general, pKd refers to the negative decadic logarithm of the Kd, by convention in mol/L.

pKd: −log10 of the molar value.

This series deals with Cul3 NTD (Homo sapiens) (UniProt Q13618). Description: ITC. In general terms: ITC needs no label: the signal is the heat of the interaction.
Cul3 NTD (Homo sapiens), sequence (Q13618 20-381): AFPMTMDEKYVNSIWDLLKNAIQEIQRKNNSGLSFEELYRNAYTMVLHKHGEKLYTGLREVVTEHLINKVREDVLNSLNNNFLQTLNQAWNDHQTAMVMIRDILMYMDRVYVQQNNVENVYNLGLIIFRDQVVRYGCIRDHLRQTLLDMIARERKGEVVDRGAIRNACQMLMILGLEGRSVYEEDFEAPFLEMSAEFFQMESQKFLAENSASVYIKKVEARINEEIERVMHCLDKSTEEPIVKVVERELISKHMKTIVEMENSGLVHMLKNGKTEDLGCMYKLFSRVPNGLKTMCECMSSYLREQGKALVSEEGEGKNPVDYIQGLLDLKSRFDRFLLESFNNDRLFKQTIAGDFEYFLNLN

SPOP BTB-BACK, sequence (O43791 177-359): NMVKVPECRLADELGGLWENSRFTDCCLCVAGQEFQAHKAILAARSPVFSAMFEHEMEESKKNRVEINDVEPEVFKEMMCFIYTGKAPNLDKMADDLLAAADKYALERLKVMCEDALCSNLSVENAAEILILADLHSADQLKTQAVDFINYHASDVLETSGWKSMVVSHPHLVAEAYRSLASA
SPOP BTB, sequence (O43791 170-300): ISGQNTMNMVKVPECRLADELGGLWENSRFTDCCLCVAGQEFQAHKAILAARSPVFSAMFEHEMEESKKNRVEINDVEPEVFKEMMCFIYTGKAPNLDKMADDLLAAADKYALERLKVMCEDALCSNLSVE

Consider SPOP BTB-BACK (from UniProt O43791), for which the pKd was 7.89.

Consider SPOP BTB (from UniProt O43791), for which the pKd is 3.00.
